Laboratory results reported in the RNAGym collection of RNA variant scans (doi:10.1093/nar/gkz1192).

B1: CPEB3 Ribozyme (parent)
chain: UAACAGGGGGCCACAGCAGAAGCGUUCACGUCGCAGCCCCUGUCAGAUUCUGGUGAAUCUGCGAAUUCUGCUGUAUAUCUC

Variants of: B1
Assay: self-cleavage, relative activity (ratio to wild type); higher = more cleavage; in vitro, sequencing
Procedure, shortened: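 Barcoded CPEB3 ribozyme mutants, produced by rounds of error-prone PCR, self-cleaved while being transcribed with T7 RNA polymerase for 5 hours at 37°C and during a subsequent 15 min DNase I step before EDTA was added. Sequencing of template-switched cDNA on Illumina gave cleaved and total reads, and DNA sequencing assigned barcodes to variants. Each variant's relative activity is its cleaved/total read fraction divided by the unmutated ribozyme's fraction, averaged across three batches. A variant needed a minimum of 5 reads.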

Variant	self-cleavage
UAACAGGGGGCGACAGCAGAAGCGUUCACGUCGCAGCCCAUGUCAGAUUCUGGUGAAUCUGCGAAUUCUGCUGUAUAUCUC [C12G C40A]	0.11
UAACAGGGGGCGACAGCAGAAGCGUUCACGUCGCAGCCCCUGUCAGAUUCUGGUGAAUCUGCGAUUUCUGCUGUAUAUCUC [C12G A65U]	0.1
UAACAGGGGGCGACAGCAGAAGCGUUCACGUCGCAGCCCCUGUCAGAUUCUGGUGAAUCUGCGAGUUCUGCUGUAUAUCUC [C12G A65G]	0.18
UAACAGGGGGCAACAGCAGAAGCGUUCACGUCGCAGCCCCUGUCAGAUUCUGGUGAAUCUGCGAAUACUGCUGUAUAUCUC [C12A U67A]	0.69
UAACAGGGGGCAACAGCAGAAGCGUUCACGUCGCAGCCCCUGUCAGAUUCUGGUGAAUCUGCGAAUCCUGCUGUAUAUCUC [C12A U67C]	0.33
UAACAGGGGGCGACAGCAGAAGCGUUCACGUCGCAGCCCCUGUCAGAUCCUGGUGAAUCUGCGAAUUCUGCUGUAUAUCUC [C12G U49C]	0.16
UAACAGGGGGCGACAGCAGAAGCGUUCACGUCGCAGCCCCUGUCAGAUUCUGGUGAAUCUGCGUAUUCUGCUGUAUAUCUC [C12G A64U]	0.13
UAACAGGGGGCGACAGCAGAAGCGUUCACGCCGCAGCCCCUGUCAGAUUCUGGUGAAUCUGCGAAUUCUGCUGUAUAUCUC [C12G U31C]	0.92
UAACAGGGGGCGACGGCAGAAGCGUUCACGUCGCAGCCCCUGUCAGAUUCUGGUGAAUCUGCGAAUUCUGCUGUAUAUCUC [C12G A15G]	0.1
UAACAGGGGGCUACAGCAGAGGCGUUCACGUCGCAGCCCCUGUCAGAUUCUGGUGAAUCUGCGAAUUCUGCUGUAUAUCUC [C12U A21G]	0.86
UAACAGGGGGCUACAGCAGAUGCGUUCACGUCGCAGCCCCUGUCAGAUUCUGGUGAAUCUGCGAAUUCUGCUGUAUAUCUC [C12U A21U]	1
UAACAGGGGGCGACAGCAGAAGCGUUCACGUCGCAGCCCCUGUCAGAUUGUGGUGAAUCUGCGAAUUCUGCUGUAUAUCUC [C12G C50G]	0.28
UAACAGGGGGCUACGGCAGAAGCGUUCACGUCGCAGCCCCUGUCAGAUUCUGGUGAAUCUGCGAAUUCUGCUGUAUAUCUC [C12U A15G]	0.86
UAACAGGGGGCUACUGCAGAAGCGUUCACGUCGCAGCCCCUGUCAGAUUCUGGUGAAUCUGCGAAUUCUGCUGUAUAUCUC [C12U A15U]	1.23
UAACAGGGGGCUUCAGCAGAAGCGUUCACGUCGCAGCCCCUGUCAGAUUCUGGUGAAUCUGCGAAUUCUGCUGUAUAUCUC [C12U A13U]	1.15
UAACAGGGGGCUCCAGCAGAAGCGUUCACGUCGCAGCCCCUGUCAGAUUCUGGUGAAUCUGCGAAUUCUGCUGUAUAUCUC [C12U A13C]	1.16
UAACAGGGGGCUGCAGCAGAAGCGUUCACGUCGCAGCCCCUGUCAGAUUCUGGUGAAUCUGCGAAUUCUGCUGUAUAUCUC [C12U A13G]	0.74
UAACAGGGGGCGACAGCAGAAGCAUUCACGUCGCAGCCCCUGUCAGAUUCUGGUGAAUCUGCGAAUUCUGCUGUAUAUCUC [C12G G24A]	0.19
UAACAGGGGGCGACAGCAGAAGCGUUCAGGUCGCAGCCCCUGUCAGAUUCUGGUGAAUCUGCGAAUUCUGCUGUAUAUCUC [C12G C29G]	0.24
UAACAGGGGGCGACAGCAGAAGCGUUCACGUCGCAGCCCCUGUCAGAUUCUGGUGAAUCUGCGAAUUCUGCAGUAUAUCUC [C12G U72A]	0.29
UAACAGGGGGCGACAGCAGAAGCGUUCACGUCGCAGCCCCUGUCAGAUUCUGGUGAAUCUGCGAAUUCUGCUGUAUACCUC [C12G U78C]	0.71
UAACAGGGGGCGACAGCAGGAGCGUUCACGUCGCAGCCCCUGUCAGAUUCUGGUGAAUCUGCGAAUUCUGCUGUAUAUCUC [C12G A20G]	0.44
UAACAGGGGGCAACAGCAGAAGCGUUCACGUCGCAGCCCCUGUCAGAUUCUGGUGAAUCUGCGAAUUCCGCUGUAUAUCUC [C12A U69C]	0.72

Variant	self-cleavage
UAACAGGGGGCAACAGCAGAAGCGUUCACGUCGCAGCCCCUGUCAGAUUCUGGUGAAUCUGCGAAUUCAGCUGUAUAUCUC [C12A U69A]	0.7
UAACAGGGGGCGACAGCAGAAGCGUUCACGUCGCAGCCCCUGCCAGAUUCUGGUGAAUCUGCGAAUUCUGCUGUAUAUCUC [C12G U43C]	0.38
UAACAGGGGGCUACAGCGGAAGCGUUCACGUCGCAGCCCCUGUCAGAUUCUGGUGAAUCUGCGAAUUCUGCUGUAUAUCUC [C12U A18G]	0.95
UAACAGGGGGCUACAGCUGAAGCGUUCACGUCGCAGCCCCUGUCAGAUUCUGGUGAAUCUGCGAAUUCUGCUGUAUAUCUC [C12U A18U]	0.62
UAACAGGGGGCAACAGCAGAAGCGUUCACGUCGCAGCCCCUGUCAGAUUCUGGCGAAUCUGCGAAUUCUGCUGUAUAUCUC [C12A U54C]	1.12
UAACAGGGGGCAACAGCAGAAGCGUUCACGUCGCAGCCCCUGUCAGAUUCUGGUGAAUCUGCGAAUUCUGCUGGAUAUCUC [C12A U74G]	1.28
UAACAGGGGGCGACAGCAGAAGCGUUAACGUCGCAGCCCCUGUCAGAUUCUGGUGAAUCUGCGAAUUCUGCUGUAUAUCUC [C12G C27A]	0.09
UAACAGGGGGCGACAGCAGAAGCGUUUACGUCGCAGCCCCUGUCAGAUUCUGGUGAAUCUGCGAAUUCUGCUGUAUAUCUC [C12G C27U]	0.18
UAACAGGGGGCGACAGCAGAAGCGUCCACGUCGCAGCCCCUGUCAGAUUCUGGUGAAUCUGCGAAUUCUGCUGUAUAUCUC [C12G U26C]	0.24
UAACAGGGGGCAACAGCAGAAGCGUUCACGUCGCAGCCCCUGUCAGAUUCUGGUGAAUCCGCGAAUUCUGCUGUAUAUCUC [C12A U60C]	0.3
UAACAGGGGGCAACAGCAGAAGCGUUCACGUCGCAGCCCCUGUCAGAUUCUGGUGAAUCUGCGAAUUCUGCCGUAUAUCUC [C12A U72C]	1.19
UAACAGGGGGCGACAGCAGAAGCGUUCACGUCGCAGCCCCUGUCAGAUUCUGGUGAGUCUGCGAAUUCUGCUGUAUAUCUC [C12G A57G]	0.41
UAACAGGGGGCGACAGCAGAAGCGUUCACGUCGCAGCCCCUGUCAGAUUCUGGUGAAUCUGCGAAUUCUGCUGUACAUCUC [C12G U76C]	0.66
UAACAGGGGGCAACAGCAGAAGCGUUCACGUCGCAGCCCCUGUCAGAUUCUGGUGAACCUGCGAAUUCUGCUGUAUAUCUC [C12A U58C]	0.54
UAACAGGGGGCGACAGGAGAAGCGUUCACGUCGCAGCCCCUGUCAGAUUCUGGUGAAUCUGCGAAUUCUGCUGUAUAUCUC [C12G C17G]	0.27
UAACAGGGGGCGACAGCAGAAGCGUUCACGUCGCAGCCCCUGUCAGAUUCUGGCGAAUCUGCGAAUUCUGCUGUAUAUCUC [C12G U54C]	0.51
UAACAGGGGGCGUCAGCAGAAGCGUUCACGUCGCAGCCCCUGUCAGAUUCUGGUGAAUCUGCGAAUUCUGCUGUAUAUCUC [C12G A13U]	1.14
UAACAGGGGGCGCCAGCAGAAGCGUUCACGUCGCAGCCCCUGUCAGAUUCUGGUGAAUCUGCGAAUUCUGCUGUAUAUCUC [C12G A13C]	0.72
UAACAGGGGGCGGCAGCAGAAGCGUUCACGUCGCAGCCCCUGUCAGAUUCUGGUGAAUCUGCGAAUUCUGCUGUAUAUCUC [C12G A13G]	0.71
UAACAGGGGGCGACAGCAGAAGCGUUCACGUCGCAGCCCCUGUCCGAUUCUGGUGAAUCUGCGAAUUCUGCUGUAUAUCUC [C12G A45C]	0.12
UAACAGGGGGCUACAGCAGAAGCGUUCCCGUCGCAGCCCCUGUCAGAUUCUGGUGAAUCUGCGAAUUCUGCUGUAUAUCUC [C12U A28C]	0.94
UAACAGGGGGCUACAGCAGAAGCGUUCGCGUCGCAGCCCCUGUCAGAUUCUGGUGAAUCUGCGAAUUCUGCUGUAUAUCUC [C12U A28G]	0.89
UAACAGGGGGCUACAGCAGGAGCGUUCACGUCGCAGCCCCUGUCAGAUUCUGGUGAAUCUGCGAAUUCUGCUGUAUAUCUC [C12U A20G]	1.19

Variant	self-cleavage
UAACAGGGGGCUACAGCAGUAGCGUUCACGUCGCAGCCCCUGUCAGAUUCUGGUGAAUCUGCGAAUUCUGCUGUAUAUCUC [C12U A20U]	0.38
UAACAGGGGGCAACAGCAGAAGCGUUCACGUCGCAGCCCCUGUCAGAUUCUGGUGAAUCUGCGAAUUCUGCUGUAUACCUC [C12A U78C]	1.04
UAACAGGGGGCAACAGCAGAAGCGUUCACGUCGCAGCCCCUGUCAGAUUCUGGUGAAUCUGCGAAUUCUGCUGUAUAACUC [C12A U78A]	1.21
UAACAGGGGGCGACAGCAGAAGCGUUCUCGUCGCAGCCCCUGUCAGAUUCUGGUGAAUCUGCGAAUUCUGCUGUAUAUCUC [C12G A28U]	0.26
UAACAGGGGGCGACAGCAGAAGCGUUCACGUCGCAGCCCCUGUCAGAUUCUAGUGAAUCUGCGAAUUCUGCUGUAUAUCUC [C12G G52A]	0.49
UAACAGGGGGCGACAGCAGAAGCGUUCACGUCGCAGCACCUGUCAGAUUCUGGUGAAUCUGCGAAUUCUGCUGUAUAUCUC [C12G C38A]	0.36
UAACAGGGGGCGACAGCUGAAGCGUUCACGUCGCAGCCCCUGUCAGAUUCUGGUGAAUCUGCGAAUUCUGCUGUAUAUCUC [C12G A18U]	0.35
UAACAGGGGGCGACAGCGGAAGCGUUCACGUCGCAGCCCCUGUCAGAUUCUGGUGAAUCUGCGAAUUCUGCUGUAUAUCUC [C12G A18G]	0.17
UAACAGGGGGCGACAGCAGAAGCGCUCACGUCGCAGCCCCUGUCAGAUUCUGGUGAAUCUGCGAAUUCUGCUGUAUAUCUC [C12G U25C]	0.14
UAACAGGGGGCGACAGCAGAAGCGUUCACGUCGCAGCCCCGGUCAGAUUCUGGUGAAUCUGCGAAUUCUGCUGUAUAUCUC [C12G U41G]	0.14
UAACAGGGGGCGACAGCAGAAGCGUUCACGUCGCAGCCCCCGUCAGAUUCUGGUGAAUCUGCGAAUUCUGCUGUAUAUCUC [C12G U41C]	1.09
UAACAGGGGGCGACAGCAGAAGCGUUCACGUCGCAGCCCCUGUCAGAUUCUGGUGAAUCUGCGAAUUCCGCUGUAUAUCUC [C12G U69C]	0.11
UAACAGGGGGCGACAGCAGAAGCGUUCACGUCGCAGCCCCUGUCAGAUUCUGGUGAAUCUGCGAAUUCAGCUGUAUAUCUC [C12G U69A]	0.3
UAACAGGGGGCUACAGCAGAAGCGUUCACGUCGCAGCCCCUGUCAGAUUCUGGUGAAUCUGCGAAUUCUGCUGUAUAUCUC [C12U]	1.25
UAACAGGGGGCGACAGCAGAAGCGUUCACGUCGCAGCCCCUGUCAGAUUCUGGUGAAUCUGCGAAUUCUGCUGUAUAUCUC [C12G]	0.59
UAACAGGGGGCGACAGCAGAAGCGUUCACGUCGCAGCCCCUGUCAGAGUCUGGUGAAUCUGCGAAUUCUGCUGUAUAUCUC [C12G U48G]	0.35
UAACAGGGGGCGACAGCAGAAGCGUUCACAUCGCAGCCCCUGUCAGAUUCUGGUGAAUCUGCGAAUUCUGCUGUAUAUCUC [C12G G30A]	0.29
UAACAGGGGGCGACAGCAGAAGCGUUCACGUCGCAGCCCCUGUCAGAUUCUGGUGAAUCUGCGAACUCUGCUGUAUAUCUC [C12G U66C]	0.24
UAACAGGGGGCGACAGCAGAAGCGUUCACGUCGCAGCCCCUGUCAGAUUCUGGUGAAUCUGCGAAUGCUGCUGUAUAUCUC [C12G U67G]	0.12
UAACAGGGGGCGACAGCAGAAGCGUUCACGUCGCAGCCCCUGUCAGAUUCUGGUGAAUCUGCGAAUACUGCUGUAUAUCUC [C12G U67A]	0.23
UAACAGGGGGCGACAGCAGAAGCGUUCACGUCGCAGCCCCUGUCAGAUUCUGGUGAAUCUGCGAAUCCUGCUGUAUAUCUC [C12G U67C]	0.08
UAACAGGGGGCAACAGCAGAAGCGUUCACGUCGCAGCCCCUGUCAGAUUCUGGUGAAUCUGCGAAUUCUGCUGUAUAUCCC [C12A U80C]	1.23
